{
  "source": "paper PMC8135088",
  "key": {"[1]": {"substrate": "OC[C@H]1OC[C@H](O)[C@@H](O)[C@@H]1O", "assay": "purified protein", "assay_type": "biochemical, Phanerodontia chrysosporium", "settings": "50 mM sodium phosphate pH 7.0, electron acceptor O2"}, "[2]": {"substrate": "OC[C@H]1OC(O)[C@H](O)[C@@H](O)[C@@H]1O", "assay": "purified protein", "assay_type": "biochemical, Phanerodontia chrysosporium", "settings": "50 mM sodium phosphate pH 7.0, electron acceptor O2"}},
  "data": [
    {"protein": "PcPOX (pyranose 2-oxidase from Phanerochaete chrysosporium) (Phanerodontia chrysosporium) (protein) MFLDTTPFRADEPYDVFIAGSGPIGATFAKLCVDANLRVCMVEIGAADSFTSKPMKGDPNAPRSVQFGPGQVPIPGYHKKNEIEYQKDIDRFVNVIKGALSTCSIPTSNNHIATLDPSVVSNSLDKPFISLGKNPAQNPFVNLGAEAVTRGVGGMSTHWTCATPEFFAPADFNAPHRERPKLSTDAAEDARIWKDLYAQAKEIIGTSTTEFDHSIRHNLVLRKYNDIFQKENVIREFSPLPLACHRLTDPDYVEWHATDRILEELFTDPVKRGRFTLLTNHRCTKLVFKHYRPGEENEVDYALVEDLLPHMQNPGNPASVKKIYARSYVVACGAVATAQVLANSHIPPDDVVIPFPGGEKGSGGGERDATIPTPLMPMLGKYITEQPMTFCQVVLDSSLMEVVRNPPWPGLDWWKEKVARHVEAFPNDPIPIPFRDPEPQVTIKFTEEHPWHVQIHRDAFSYGAVAENMDTRVIVDYRFFGYTEPQEANELVFQQHYRDAYDMPQPTFKFTMSQDDRARARRMMDDMCNIALKIGGYLPGSEPQFMTPGLALHLAGTTRCGLDTQKTVGNTHCKVHNFNNLYVGGNGVIETGFAANPTLTSICYAIRASNDIIAKFGRHRG", "values": [
      {"measurement": "Km", "setting": "[1]", "value": "18.9 ± 4.4", "unit": "mM"},
      {"measurement": "kcat", "setting": "[1]", "value": "82.5 ± 10.3", "unit": "s⁻¹"},
      {"measurement": "kcat/Km", "setting": "[1]", "value": 4400, "unit": "M⁻¹ s⁻¹"},
      {"measurement": "Km", "setting": "[2]", "value": "0.978 ± 0.156", "unit": "mM"},
      {"measurement": "kcat", "setting": "[2]", "value": "115 ± 2", "unit": "s⁻¹"},
      {"measurement": "kcat/Km", "setting": "[2]", "value": 120000, "unit": "M⁻¹ s⁻¹"}
    ]},
    {"protein": "PcPOX (pyranose 2-oxidase from Phanerochaete chrysosporium) (Phanerodontia chrysosporium; A551L) (protein) MFLDTTPFRADEPYDVFIAGSGPIGATFAKLCVDANLRVCMVEIGAADSFTSKPMKGDPNAPRSVQFGPGQVPIPGYHKKNEIEYQKDIDRFVNVIKGALSTCSIPTSNNHIATLDPSVVSNSLDKPFISLGKNPAQNPFVNLGAEAVTRGVGGMSTHWTCATPEFFAPADFNAPHRERPKLSTDAAEDARIWKDLYAQAKEIIGTSTTEFDHSIRHNLVLRKYNDIFQKENVIREFSPLPLACHRLTDPDYVEWHATDRILEELFTDPVKRGRFTLLTNHRCTKLVFKHYRPGEENEVDYALVEDLLPHMQNPGNPASVKKIYARSYVVACGAVATAQVLANSHIPPDDVVIPFPGGEKGSGGGERDATIPTPLMPMLGKYITEQPMTFCQVVLDSSLMEVVRNPPWPGLDWWKEKVARHVEAFPNDPIPIPFRDPEPQVTIKFTEEHPWHVQIHRDAFSYGAVAENMDTRVIVDYRFFGYTEPQEANELVFQQHYRDAYDMPQPTFKFTMSQDDRARARRMMDDMCNIALKIGGYLPGSEPQFMTPGLLLHLAGTTRCGLDTQKTVGNTHCKVHNFNNLYVGGNGVIETGFAANPTLTSICYAIRASNDIIAKFGRHRG", "values": [
      {"measurement": "Km", "setting": "[1]", "value": "26.9 ± 3.5", "unit": "mM"},
      {"measurement": "kcat", "setting": "[1]", "value": "0.00696 ± 0.00027", "unit": "s⁻¹"},
      {"measurement": "kcat/Km", "setting": "[1]", "value": 0.26, "unit": "M⁻¹ s⁻¹"},
      {"measurement": "Km", "setting": "[2]", "value": "3.44 ± 1.15", "unit": "mM"},
      {"measurement": "kcat", "setting": "[2]", "value": "0.00659 ± 0.00129", "unit": "s⁻¹"},
      {"measurement": "kcat/Km", "setting": "[2]", "value": 1.9, "unit": "M⁻¹ s⁻¹"}
    ]},
    {"protein": "PcPOX (pyranose 2-oxidase from Phanerochaete chrysosporium) (Phanerodontia chrysosporium; A551N) (protein) MFLDTTPFRADEPYDVFIAGSGPIGATFAKLCVDANLRVCMVEIGAADSFTSKPMKGDPNAPRSVQFGPGQVPIPGYHKKNEIEYQKDIDRFVNVIKGALSTCSIPTSNNHIATLDPSVVSNSLDKPFISLGKNPAQNPFVNLGAEAVTRGVGGMSTHWTCATPEFFAPADFNAPHRERPKLSTDAAEDARIWKDLYAQAKEIIGTSTTEFDHSIRHNLVLRKYNDIFQKENVIREFSPLPLACHRLTDPDYVEWHATDRILEELFTDPVKRGRFTLLTNHRCTKLVFKHYRPGEENEVDYALVEDLLPHMQNPGNPASVKKIYARSYVVACGAVATAQVLANSHIPPDDVVIPFPGGEKGSGGGERDATIPTPLMPMLGKYITEQPMTFCQVVLDSSLMEVVRNPPWPGLDWWKEKVARHVEAFPNDPIPIPFRDPEPQVTIKFTEEHPWHVQIHRDAFSYGAVAENMDTRVIVDYRFFGYTEPQEANELVFQQHYRDAYDMPQPTFKFTMSQDDRARARRMMDDMCNIALKIGGYLPGSEPQFMTPGLNLHLAGTTRCGLDTQKTVGNTHCKVHNFNNLYVGGNGVIETGFAANPTLTSICYAIRASNDIIAKFGRHRG", "values": [
      {"measurement": "Km", "setting": "[1]", "value": "65.7 ± 4.5", "unit": "mM"},
      {"measurement": "kcat", "setting": "[1]", "value": "0.253 ± 0.006", "unit": "s⁻¹"},
      {"measurement": "kcat/Km", "setting": "[1]", "value": 3.8, "unit": "M⁻¹ s⁻¹"},
      {"measurement": "Km", "setting": "[2]", "value": "12.1 ± 0.3", "unit": "mM"},
      {"measurement": "kcat", "setting": "[2]", "value": "0.496 ± 0.021", "unit": "s⁻¹"},
      {"measurement": "kcat/Km", "setting": "[2]", "value": 41, "unit": "M⁻¹ s⁻¹"}
    ]}
  ]
}
